# Assay results taken from the nanobody polyreactivity screen of Harvey et al. (2022).
# Assay: yeast display, Sf9 membrane polyspecificity reagent, FACS + sequencing; frameworks hold sequencing errors
# Summary of the method: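 Synthetic nanobody libraries on Saccharomyces cerevisiae BJ5465 were galactose-induced for 36–48 hours, stained 1 hour at 4 °C with 10% biotinylated, detergent-solubilized Sf9 membrane reagent and enriched on streptavidin microbeads. FACS then separated cells into low and high (top ~1%) gates by anti-HA (expression) and streptavidin (reagent binding) fluorescence. Genes were colony-PCR amplified, MiSeq 2 × 250 sequenced and CDR-length filtered. A clone's polyreactivity label is that of its gate of origin.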
row,Sequence,polyreactivity (PSR sort gate)
1,QVQLVESGGGLVQAGGSLRLSCAASGSIFRRNAMGWYRQAPGKERELVAAINSRGGSTYYADSVKGRFTISRDNAKNTVYLQMNSLKPEDTAVYYCATARFLRYDRYDDYWGQGTQVTVSS,low polyreactivity
2,QVQLVESGGGLVQAGGSLRLSCAASGRIFWSYAMGWYRQAPGKERELVAAISYSGGGTYYADSVKGRFTISRDNAKNTVYLQMNSLKPEDTAVYYCAAETYYAPYDYWGQGTQVTVSS,high polyreactivity
3,QDQLGESGGGLVQAGGSLRLSGAASGSTFSRNAMGWYRQAPGKERELVAAISRSGGSTHYADSVKGRFTISRDNAKNTVYLQMNSQKPEDTAVYYCAARVPRGDLPGYHYAYYYWGQGTQVTVSS,high polyreactivity
4,QVQLLESGGGLVQAGGSLRLSCAASGSTFYFNAMGWYSQAPGKDSELVAGIRYSGSSTYYADSVKGRFTISRDNAKNTVYLQMHSLKPEDTAVYYCAASLWRWRFSRFGYWGQGTQVTVSS,high polyreactivity
5,QVQLVESGGGLVQAGGSLRLSCAASGSTFFLYAMGWYRQAPGKERELVASITDGGSTNYADSVKGRFTISRDNAKNTVYLQMNSLKPEDTAVYYCNALARSSRYDYWGQGTQVTVSS,low polyreactivity
6,QVQLVESGGGLVQAGGRLRLSCAASGRTFLYYAMGWSRQAPGKERELVAAINWRGTRTYYADSVKGRFTISRDNAQNTVYLQMNSLKPEDTAVYYCNRQGPDFHLRAGQGNYWGQGTQVTVSS,high polyreactivity
7,QVQLVESGGGLVQAGGSLRLSCAASGITFQYNAMGWYRQAPGKERELVAAINYSGGSTYYADSVKGRYTISRDNAKNTVYLQMNSLKPEDTAVYYCAKDGTDYSHRPGKWEFDSWGQGTQVSVSS,low polyreactivity
8,QDQLVESGGGLVQAGGSLRLSCAASGRTFRYYAMGWYRQAPRKERELVAAISSGGSTNYADSVKARFTISRDNAKNTVYLQMNRLKPEDTGVYYCAVQAWYMTYSYPYSKGYYWGQGTQLTVSS,high polyreactivity
9,QVQHVESGGGLVQAGGSLRLSCAASGSTFKFYTMGWYRQAPGKERELVAGSTRAGSTNYADSVKGRFTISRDNAKNTVYLQMNSLKPEDTAVYYCNAYIWIYGCDYWGQGTQVTVSS,high polyreactivity
10,QVQLVESGGGKVQEGGSLRLSCAASGRTLAPYAMGWYRQAPGKERELVAISTIGGTTYYADSVKGRFTISRDNAKNTVYLQMNSLKPEDTAVYYGAADGNSTGVYLDGGEGFAYDYWGQGTQVTVSS,low polyreactivity
11,QVQLVESGGGLVQAGGSLRLSCAASGSIFWRNAMGWYRQAQGKEREFVATITWSGDSTYYADSVKGRFTISRDNAKNTVYLQMNSLKPEDTAVYYCATDWRNWGYDSWGQGTQVTVSS,low polyreactivity
12,QVQLVESGGGLVQAGGSLRLSCAASGFTFGYNEMGWYRQAQGKERELVAGIRSGDDTNYADSVKGRFTISRDNAKNTVYLQMNSLKPEDTAVYYCPRDPQFYLHTVPDGAYNYWGQGTQVTVSS,low polyreactivity
13,QVQLVESGGGLVQAGGSLRLSCAASGSTFYANGMGRYRQAPGKERELDAAISWSGGSTYYADSVKGRFTISRDNAKNTVYLQMNSLKPEDTAVYYCAAAYRSFINGRWYDYWGQGTQVTVSS,low polyreactivity
14,QVQLVESGGGLVQAGGSLRLRCAASGRIFGFYAMGWYRQAPGKERELVAAITSSAGRTRYADSVKGRFTISRDNAKNTVYLQMNSLKPEDTAVYYCAARTVGRKAGFDYWGQGTQVTVSS,high polyreactivity
15,QVQLVESGGGLFQEGGSLRLSCAASGSTFSVNAMGWYRQAPGKERELVAAISKRVGSTYYADSVKGRFTISRDNAKNTVYLQMNSLKPEDTAVYYCAAVIVHYGRAYDYWGQGTQVTVSS,high polyreactivity
16,QVQLEESGGGLVQEGGSLRLSCSASGRTFRYAMGWYRQAPGKERELVAAISWRGGSTFYADSVKGRFTISRDNAKNTVYLQMNSLKPEDTAVYYCATEFRYHYLSTWSWRYYYWGQGTQVTVSS,low polyreactivity
17,QVQLVESGGGLVQAGGSLRLSCAASGSIFTPNAMGWYRQAPGKERELVAAISWSGGGTYYADSVKGRFTISRDNAKNTVYLQMNSLKPEDTADYYCAVDFRYQDAYEYYWGQGTQVTVSS,low polyreactivity
18,QVQLVESGGGLVQAGGSLRLSCAASGSIFYRYAMGWYRQAPGKERELVASISSGVSTNYADSVKGRFTISRDNAKNTVYLQLNSLKPEDTAVYYCAVRHRYTRAYWGRDYWGQGTQVTVSS,low polyreactivity
19,QVQLVESGGGLVQAGGSLRLSCAASGSIFAYYAMGWYRQAPGKERELVAVISRGGSTYYADSVKGRFTISRDNATNTVYLQMNSLKPEDTAVYYCAADDTRGREEYDYWGQGTQVTVSS,high polyreactivity
20,QVQLVESGGGLVQAGGSLRLSCAASGSTFYTNAMGWYRQAPGKERELVAAISASVGSTYYADSVKGRFTISRDNAKNTVYLQMNSLKPEDTAVYNCAADVWASRRYDYWGQGTQVTLSS,low polyreactivity
21,QVQLVESGGGLVQAGGSLRLSCAASGGTYRSNAMGWYRQAPGKERELVAASTNYADSVKGRFTISRDNAKNTVYLQMNSLKPEDTAVYYCAAGPTDSQTGMDYWGQGTQVTVSS,low polyreactivity
22,QVQLVESGGGLVQAGGSLRLSCAASGRIFVQNAMGWYRQAPGKERELVAAISASGGRTSYADSVKGRFTISRDNAKNTVYLQMNSLKPEDTAVYYCAALFRVYPLTKKYGYWGQGTQVTVSS,high polyreactivity
23,QVHLVESGGGLVPAGGSLRLSCAASGGIFIFYAMGWYRQAPGKERELVAAISNVSSTNYADSVKGRFTISRDNAKNTVYLQMNSLKPEDTAVYYCNAVGVPSEYYSWGQGTQVTVSS,low polyreactivity
24,QVQLVESGGGLVQAGGSLRLSCAASGFIFYKYAMGWYRQAPGKERELVAAITASGGSTYYADSVKGRFTISRDNEKITVYLQMNSLKPEDTEVYFCAASRLFGFDYWGQGTQVTVSS,high polyreactivity
25,QVQLVESGGGLVQAGGSLRLSCAASGRTFANYAMGWYRQAPGKDRELVAAIYSGGNTYYEDSVKGRFTISRDNAKNTVFLQMNRLKPEDTAVYYCNSPWYYRYQRNEYGYWGQGTQVTVSS,high polyreactivity
26,QVQIVESGGGLVQAGGSLRISCAASGRTYRFYAMGWYRQAPGKERELVAAISSGGSTYYADSVKGRFTISRDNAKNTVYLQMNSLNPEDTAVYYCAAQRWRGASLYDYWGQGTQVTVSS,high polyreactivity
27,QVQLVESGGGLVQAGGSLRLSCAASGRTIRWNAMGWYRQAPGKERELVAAIDSVDNTYYADSVNGRFTISRDNAKNTVYFQMNSLKPEDTAVYYCARDTYWQVQMDYWGQGTQVTVSS,low polyreactivity
28,QVQLVESGVGLVQAGGSLRLSCAASGLTFRPNAMGWYRQAPGKERELVASISFSGGSTYYADSVKGRFTISRDNAKNTVYLQMNSLKPEDTAVYYCAADVATTHELDYWGQGTQVTVSS,high polyreactivity
29,QVQLVESGGGLVQAGGSLRLSCAASGSILYINAMGWYRQAPGKERELVAAITYSGGSTYYADSVKGRFTISRDNAKNTVYLQMNSLKPEDTAVYYWAADAVVAGRYDGHDYWGQGTQVTVSS,low polyreactivity
30,QVQLVESGGGLVQAGGSLRLSSAASGIIFYNYAMGWDRQAPGKEWEFVAAISWSGGSTNYADSVKGRFTISRDTAKNTVDLQMNSLQPEDTAVYYCAAEYYGWYYGREAYWGQGTQVTVSS,low polyreactivity
